Data taken from patent publication US20080026077A1, “METHODS AND COMPOSITIONS OF GENE DELIVERY AGENTS FOR SYSTEMIC AND LOCAL THERAPY” (priority 2002, published 2008).
Read-outs that look alike come from different tables or passages of the source. Marks after values point to notes of the source that are not given here. No end group written: not given here.

Assays:
[1] = tibia, 24 hours after oral dosing, 4 mg/kg alendronate, with or without 4× molar BAC-A6
Protocol: Male Swiss CFW mice 25-28 g are fed or fasted overnight and subsequently lightly anesthetized with isoflurane by inhalation prior to oral dosing. Mice are administered 0.2 ml of the dosing solution. 24 hrs after dosing the mice are sacrificed and the tibia collected. […] The amount of 14CO2 is quantified by scintillation counting.

[2] = Oral gavage of zanamivir with various BAC analogs, plasma zanamivir; assay type: in vivo, Male Swiss CFW mice; conditions: fasted mice, 1 mg/kg zanamivir, BAC 1x equal molar; for Increase in concentration above H2O control / Mean Plasma Zanamivir Concentration: 30 min
Description: Plasma zanamivir concentrations are quantified by LC/MS/MS analysis.

[3] = Critical micellar concentration (CMC) of BACs, dye solubilization method; assay type: physicochemical; conditions: DPH dye solubilization, 50 mM Tris buffer pH 8.0
Protocol: Briefly, serial dilutions of a 7 mg/ml solution of the BACs are made in 50 mM Tris buffer pH 8.0. 10 ul of the dye 1,6-diphenyl-1,3,5-hexatriene (DPH, Sigma) (0.4 mM in methanol) is added to each ml. After overnight RT incubation in the dark, the absorbance of the samples at 356 nm is recorded. Linear regression of the data points above baseline was performed and the calculated CMC derived from the x intercept. The results for thirteen different BACs are shown in Table 1 based on a chendoxycholamide of the detailed motifs.

[4] = Octanol/buffer partitioning of carboxyfluorescein mixed with BAC analogs; assay type: physicochemical; conditions: 4 nmoles carboxyfluorescein, 281 nmoles BAC
Protocol: Partitioning of the fluorescent compound carboxyfluorescein by a BAC of Formula I into the octanol phase of an octanol/buffer portioning system for a series of BAC compounds is determined following standard methods. […] The mixture is vortexed for 5 mins and the incubated at room temperature for 3 hours. The solution is centrifuged to facilitate complete phase separation and a 100 μl of aqueous material is withdrawn for fluorescent measurement.

[5] = In situ intestinal absorption, single pass perfusion of radiolabeled BAC/pDNA; assay type: in vivo; conditions: complexes with membrane translocating BAC
Protocol: In order to examine the capability of the BAC/pDNA complex to bind and/or be absorbed onto the intestinal lumen cells the absorption of nicked-radiolabeled pDNA in a single pass perfusion experiment is tested. Using isolated ileal or jejunal segments radio-labeled BAC/pDNA mixtures mixture is mixed with HEPES buffer, pH 7.4, and perused at jejunal (filled symbols) and ileal (open symbols) sites. After 30 min of steady state, sample fractions are collected and the absorbed fraction of BAC/pDNA calculated. BAC/pDNA mixtures used are pDNA:BAC 1:27,000 neutrally charged and 1:54,000 molar ratios positively charged. Uncomplexed pDNA is used as a control.

NCCCC(O)(P(=O)(O)O)P(=O)(O)O [Alendronate, alendronate]
Bone deposition of 14C-alendronate, mean dpm/mg bone ([1]; Fasted mice): 3.92 dpm/mg
Bone deposition of 14C-alendronate, mean dpm/mg bone ([1]; Fed mice): 9.51 dpm/mg

CC(=O)N[C@H]1[C@H]([C@H](O)[C@H](O)CO)OC(C(=O)O)=C[C@@H]1N=C(N)N [Zanamivir, zanamivir, reference compound]
Increase in concentration above H2O control [2]: 1 fold
concentration at 30 min ([2]; male, Swiss CFW, mouse, plasma): 55 ng/mL

B7: chendoxycholamide bile acid conjugate, peptide Z = -RRRARRR (not fully specified (N-terminus); printed as -RRRARRR; also: chenodeoxycholamide bile acid conjugate, attachment not placed)
Increase in concentration above H2O control [2]: 4 fold
Mean Plasma Zanamivir Concentration [2]: 228 ng/mL
Calculated CMC concentration [3]: >5.0* mM

C8: chendoxycholamide bile acid conjugate, peptide Z = -RRARRARR (not fully specified (N-terminus); printed as -RRARRARR; also: chenodeoxycholamide bile acid conjugate, attachment not placed)
Increase in concentration above H2O control [2]: 4 fold
Mean Plasma Zanamivir Concentration [2]: 223 ng/mL
Calculated CMC concentration [3]: 4.4 mM

Carboxyfluorescein
Fluorescence Units ([4]; aqueous phase after octanol/buffer partitioning): 78614
LogD ([4]; carboxyfluorescein, octanol/buffer): −1.638

D9: chendoxycholamide bile acid conjugate, peptide Z = -RARARARAR (not fully specified (N-terminus); printed as -RARARARAR; also: chenodeoxycholamide bile acid conjugate, attachment not placed)
Calculated CMC concentration [3]: 1.7 mM

N-E9 motif of chenoxycholamide (RAWARAWAR; also: chenodeoxycholamide bile acid conjugate, site not given here)
Increase in concentration above H2O control [2]: 22 fold
Mean Plasma Zanamivir Concentration [2]: 1227 ng/mL
Calculated CMC concentration [3]: 1.2 mM

membrane translocating BAC: 12-residue membrane translocating peptide (SEQ ID NO: 23) coupled to bile acid by an ether linkage (AAVLLPVLLAAP; also: coupled to bile acid by an ether linkage, site not given here)
in situ intestinal absorption compared with FIG. 7 [5]: comparable results to those depicted in FIG. 7
